Publication PMC8000408, “Inhibition of NUPR1–Karyopherin β1 Binding Increases Anticancer Drug Sensitivity” (International Journal of Molecular Sciences, 2021)

Key:
[1] = target: T1, Cy5-labeled karyopherin β1 (KPNB1) (UniProt Q14974 1-876, Cy5 label (site not stated)); assay: single-molecule pull-down (TIRF microscopy); GST-NUPR1 immobilised; observed rate constants at various concentrations of karyopherin β1, fitted with a Michaelis-Menten equation; conditions: both partners purified
T1 construct: Karyopherin β1 (KPNB1, importin β1); also called importin β1; Cy5-KPNB1

[2] = target: T1, Cy5-labeled karyopherin β1 (KPNB1); assay: single-molecule pull-down (TIRF microscopy); GST-NUPR1 (100 nM) immobilised on PEG-coated quartz via neutravidin and biotin-conjugated GST-tag antibody; 5 nM Cy5-labeled KPNB1 in imaging buffer (4 mM Trolox, 0.2% glucose, 50 mM NaCl, pyranose oxidase, catalase); spots counted up to 1 h, then unbound KPNB1 washed out for dissociation; exponential fits; conditions: both partners purified

T1 sequence (Q14974 whole entry): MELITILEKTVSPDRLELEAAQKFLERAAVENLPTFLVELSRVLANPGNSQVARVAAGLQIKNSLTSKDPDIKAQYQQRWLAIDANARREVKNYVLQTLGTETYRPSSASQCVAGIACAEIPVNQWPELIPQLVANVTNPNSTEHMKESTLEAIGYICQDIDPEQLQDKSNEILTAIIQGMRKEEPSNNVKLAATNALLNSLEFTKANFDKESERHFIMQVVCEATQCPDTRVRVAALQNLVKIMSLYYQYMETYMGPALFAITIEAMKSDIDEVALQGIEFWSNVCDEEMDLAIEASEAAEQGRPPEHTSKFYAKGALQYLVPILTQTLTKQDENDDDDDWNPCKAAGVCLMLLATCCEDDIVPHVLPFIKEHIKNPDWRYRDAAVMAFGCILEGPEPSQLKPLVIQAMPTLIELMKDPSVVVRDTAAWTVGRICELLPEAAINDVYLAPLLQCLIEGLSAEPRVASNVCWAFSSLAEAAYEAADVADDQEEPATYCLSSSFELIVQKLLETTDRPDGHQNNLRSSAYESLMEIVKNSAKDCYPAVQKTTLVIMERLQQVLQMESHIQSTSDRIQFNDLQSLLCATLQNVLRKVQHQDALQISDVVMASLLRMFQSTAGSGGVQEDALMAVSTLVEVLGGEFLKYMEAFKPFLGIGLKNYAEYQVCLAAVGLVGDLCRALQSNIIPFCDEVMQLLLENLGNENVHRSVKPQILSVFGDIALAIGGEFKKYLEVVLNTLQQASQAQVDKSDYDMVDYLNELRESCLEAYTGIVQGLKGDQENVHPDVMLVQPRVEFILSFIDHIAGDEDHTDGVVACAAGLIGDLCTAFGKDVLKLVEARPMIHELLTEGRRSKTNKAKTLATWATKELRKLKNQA

Kd [1]: 0.75 nM
Kd [2]: ~0.65 nM
koff [2]: 0.0003 s⁻¹
kon [2]: 467000 M⁻¹ s⁻¹
B1: GST-NUPR1 (nuclear protein-1) recombinant protein (natural protein, UniProt O60356 1-82, looked up)
chain: MATFPPATSAPQQPPGPEDEDSSLDESDLYSLAHSYLGGGGRKGRTKREAAANTNRPSPGGHERKLVTKLQNSERKKRGARR
notes: Nuclear protein-1 (NUPR1, p8/Com-1); Held on the PEG-coated quartz surface through neutravidin and a biotin-conjugated GST-tag antibody; No catalogue number is printed; also called p8; Com-1; source: bought: NOVUS Biologicals (recombinant protein)
